Results on four sequences are retold here after the supplement of paper PMC5998384.

The subject of data set [1] is HeLa Kyoto. Kind of data set: melting temperature (median over replicates), in situ; higher = more thermally stable.
The test system of data set [2] is HeLa Kyoto. Kind of data set: solubility change mitosis vs G1/S (difference of NP-40 vs SDS log2 ratios) (log2 ratio difference); higher = more soluble in mitosis.
The subject of data set [3] is HeLa Kyoto. Kind of data set: thermal stability score vs G1/S (z-score of summed log2 fold changes over temperatures); higher = more thermally stable than in G1/S.
Data set [4] concerns HeLa Kyoto. Kind of data set: solubility in G1/S (NP-40 vs SDS abundance) (log2 ratio); higher = more soluble. To be noted: cell cycle stage: G1/S.
Where [5] appears, read: cell cycle stage: early G1 (4.5 h after nocodazole release).
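Wherever melting temperature (median over replicates), in situ is given: HeLa Kyoto cells synchronized by double thymidine or nocodazole block, proteins quantified by TMT10plex mass spectrometry, three independent biological replicates.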
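Wherever solubility change mitosis vs G1/S (difference of NP-40 vs SDS log2 ratios) is given: synchronized HeLa Kyoto cells (double thymidine block for G1/S, nocodazole release for mitosis), protein amounts in NP-40 versus SDS lysates quantified by mass spectrometry, three biological replicates.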
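Wherever solubility in G1/S (NP-40 vs SDS abundance) is given: HeLa Kyoto cells arrested at G1/S by double thymidine block, proteins quantified by TMT10plex mass spectrometry in mild NP-40 versus SDS extracts, three biological replicates.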
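Wherever thermal stability score vs G1/S (z-score of summed log2 fold changes over temperatures) is given: synchronized HeLa Kyoto cells, proteins quantified by TMT10plex mass spectrometry, three biological replicates, mitosis taken 0.5 h after nocodazole release, G1/S directly after double thymidine block.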

With “MATQADLMELDMAMEPDRKAAVSHWQQQSYLDSGIHSGATTTAPSLSGKGNPEEEDVDTSQVLYEWEQGFSQSFTQEQVADIDGQYAMTRAQRVRAAMFPETLDEGMQIPSTQFDAAHPTNVQRLAEPSQMLKHAVVNLINYQDDAELATRAIPELTKLLNDEDQVVVNKAAVMVHQLSKKEASRHAIMRSPQMVSAIVRTMQNTNDVETARCTAGTLHNLSHHREGLLAIFKSGGIPALVKMLGSPVDSVLFYAITTLHNLLLHQEGAKMAVRLAGGLQKMVALLNKTNVKFLAITTDCLQILAYGNQESKLIILASGGPQALVNIMRTYTYEKLLWTTSRVLKVLSVCSSNKPAIVEAGGMQALGLHLTDPSQRLVQNCLWTLRNLSDAATKQEGMEGLLGTLVQLLGSDDINVVTCAAGILSNLTCNNYKNKMMVCQVGGIEALVRTVLRAGDREDITEPAICALRHLTSRHQEAEMAQNAVRLHYGLPVVVKLLHPPSHWPLIKATVGLIRNLALCPANHAPLREQGAIPRLVQLLVRAHQDTQRRTSMGGTQQQFVEGVRMEEIVEGCTGALHILARDVHNRIVIRGLNTIPLFVQLLYSPIENIQRVAAGVLCELAQDKEAAEAIEAEGATAPLTELLHSRNEGVATYAAAVLFRMSEDKPQDYKKRLSVELTSSLFRTEPMAWNETADLGLDIGAQGEPLGYRQDDPSYRSFHSGGYGQDALGMDPMMEHEMGGHHPGADYPVDGLPDLGHAQDLMDGLPPGDSNQLAWFDTDL [CTNNB1]”, the melting temperature stood at 53.4 °C in the data set on HeLa Kyoto [1] (cell cycle stage: G1/S) and 52.4 °C in the data set on HeLa Kyoto [1] (cell cycle stage: mitosis). Moreover, the “solubility change mitosis (log2)” value in the data set on HeLa Kyoto [2] is -0.093. In addition, the thermal stability score in the data set on HeLa Kyoto [3] (setting [5]) stood at 0.0437; with HeLa Kyoto [3] (cell cycle stage: mitosis), 0.0622. The “solubility in G1/S (log2)” value with HeLa Kyoto [4] was 0.0555.

With “MCNTPTYCDLGKAAKDVFNKGYGFGMVKIDLKTKSCSGVEFSTSGHAYTDTGKASGNLETKYKVCNYGLTFTQKWNTDNTLGTEISWENKLAEGLKLTLDTIFVPNTGKKSGKLKASYKRDCFSVGSNVDIDFSGPTIYGWAVLAFEGWLAGYQMSFDTAKSKLSQNNFALGYKAADFQLHTHVNDGTEFGGSIYQKVNEKIETSINLAWTAGSNNTRFGIAAKYMLDCRTSLSAKVNNASLIGLGYTQTLRPGVKLTLSALIDGKNFSAGGHKVGLGFELEA [VDAC3]”, the results for the melting temperature in the data set on HeLa Kyoto [1] (cell cycle stage: G1/S) and in the data set on HeLa Kyoto [1] (cell cycle stage: mitosis) were 61.6 °C and 59.9 °C, respectively. The “solubility change mitosis (log2)” value in the data set on HeLa Kyoto [2] was -0.0561. The values for the thermal stability score in the data set with HeLa Kyoto [3] (setting [5]) and with HeLa Kyoto [3] (cell cycle stage: mitosis) were -1.43 and -4.76, respectively. Besides, in the data set with HeLa Kyoto [4], the “solubility in G1/S (log2)” value was -0.0264.

On to “MVQLYNLHPFGSQQVVPCKLEPDRFCGGGRDALFVAAGCKVEAFAVAGQELCQPRCAFSTLGRVLRLAYSEAGDYLVAIEEKNKATFLRAYVNWRNKRTENSRVCIRMIGHNVEGPFSKAFRDQMYIIEMPLSEAPLCISCCPVKGDLLVGCTNKLVLFSLKYQIINEEFSLLDFERSLIIHIDNITPVEVSFCVGYVAVMSDLEVLIVKLESGPKNGERVHHHPHKTNNRIRRTEEGISNEISQLESDDFVICQKPLELLGEKSEQSGLSVTLESTGLADEKRKYSHFQHLLYRRFAPDISSYVLSDDIKLHSLQLLPIYQTGSLTSDGKNLSQEKELLSLFCFFSLPHVGYLYMVVKSVELMSVYQYPEKSQQAVLTPQFLHVITSNNLQCFTVRCSAAAAREEDPYMDTTLKACPPVSMDVCALRIQLFIGLKAICHFKNHIILLTKAEPEAIPERRQSPKRLLSRKDTSVKIKIPPVAEAGWNLYIVNTISPVQLYKEMVDYSNTYKTVKTQSCIHLLSEAHLLVRAALMDASQLEPGEKAELLEAFKESCGHLGDCYSRLDSQHSHLTLPYYKMSGLSMAEVLARTDWTVEDGLQKYERGLIFYINHSLYENLDEELNEELAAKVVQMFYVAEPKQVPHILCSPSMKNINPLTAMSYLRKLDTSGFSSILVTLTKAAVALKMGDLDMHRNEMKSHSEMKLVCGFILEPRLLIQQRKGQIVPTELALHLKETQPGLLVASVLGLQKNNKIGIEEADSFFKVLCAKDEDTIPQLLVDFWEAQLVACLPDVVLQELFFKLTSQYIWRLSKRQPPDTTPLRTSEDLINACSHYGLIYPWVHVVISSDSLADKNYTEDLSKLQSLICGPSFDIASIIPFLEPLSEDTIAGLSVHVLCRTRLKEYEQCIDILLERCPEAVIPYANHELKEENRTLWWKKLLPELCQRIKCGGEKYQLYLSSLKETLSIVAVELELKDFMNVLPEDGTATFFLPYLLYCSRKKPLT [HPS3]”, for which the figures for the melting temperature in the data set with HeLa Kyoto [1] (cell cycle stage: G1/S) and in the data set with HeLa Kyoto [1] (cell cycle stage: mitosis) were 51.4 °C and 50.6 °C, respectively. Moreover, the “solubility change mitosis (log2)” value in the data set with HeLa Kyoto [2] is -0.103. Moreover, the figures for the thermal stability score with HeLa Kyoto [3] (setting [5]) and with HeLa Kyoto [3] (cell cycle stage: mitosis) were 0.612 and 0.736, respectively. For the same sequence, the “solubility in G1/S (log2)” value in the data set on HeLa Kyoto [4] is -0.0533.

With “MKSLKSRLRRQDVPGPASSGAAAASAHAADWNKYDDRLMKAAERGDVEKVTSILAKKGVNPGKLDVEGRSVFHVVTSKGNLECLNAILIHGVDITTSDTAGRNALHLAAKYGHALCLQKLLQYNCPTEHADLQGRTALHDAAMADCPSSIQLLCDHGASVNAKDVDGRTPLVLATQMSRPTICQLLIDRGADVNSRDKQNRTALMLGCEYGCRDAVEVLIKNGADISLLDALGHDSSYYARIGDNLDILTLLKTASENTNKGRELWKKGPSLQQRNLTHMQDEVNVKSHQREHQNIQDLEIENEDLKERLRKIQQEQRILLDKVNGLQLQLNEEVMVADDLESEREKLKSLLAAKEKQHEESLRTIEALKNRFKYFESDHLGSGSHFSNRKEDMLLKQGQMYMADSQCTSPGIPAHMQSRSMLRPLELSLPSQTSYSENEILKKELEAMRTFCESAKQDRLKLQNELAHKVAECKALALECERVKEDSDEQIKQLEDALKDVQKRMYESEGKVKQMQTHFLALKEHLTSEAASGNHRLTEELKDQLKDLKVKYEGASAEVGKLRNQIKQNEMIVEEFKRDEGKLIEENKRLQKELSMCEMEREKKGRKVTEMEGQAKELSAKLALSIPAEKFENMKSSLSNEVNEKAKKLVEMEREHEKSLSEIRQLKRELENVKAKLAQHVKPEEHEQVKSRLEQKSGELGKKITELTLKNQTLQKEIEKVYLDNKLLKEQAHNLTIEMKNHYVPLKVSEDMKKSHDAIIDDLNRKLLDVTQKYTEKKLEMEKLLLENDSLSKDVSRLETVFVPPEKHEKEIIALKSNIVELKKQLSELKKKCGEDQEKIHALTSENTNLKKMMSNQYVPVKTHEEVKMTLNDTLAKTNRELLDVKKKFEDINQEFVKIKDKNEILKRNLENTQNQIKAEYISLAEHEAKMSSLSQSMRKVQDSNAEILANYRKGQEEIVTLHAEIKAQKKELDTIQECIKVKYAPIVSFEECERKFKATEKELKDQLSEQTQKYSVSEEEVKKNKQENDKLKKEIFTLQKDLRDKTVLIEKSHEMERALSRKTDELNKQLKDLSQKYTEVKNVKEKLVEENAKQTSEILAVQNLLQKQHVPLEQVEALKKSLNGTIENLKEELKSMQRCYEKEQQTVTKLHQLLENQKNSSVPLAEHLQIKEAFEKEVGIIKASLREKEEESQNKMEEVSKLQSEVQNTKQALKKLETREVVDLSKYKATKSDLETQISSLNEKLANLNRKYEEVCEEVLHAKKKEISAKDEKELLHFSIEQEIKDQKERCDKSLTTITELQRRIQESAKQIEAKDNKITELLNDVERLKQALNGLSQLTYTSGNPTKRQSQLIDTLQHQVKSLEQQLADADRQHQEVIAIYRTHLLSAAQGHMDEDVQEALLQIIQMRQGLVC [UACA]”, the melting temperature in the data set on HeLa Kyoto [1] (cell cycle stage: G1/S) was 48.5 °C; in the data set with HeLa Kyoto [1] (cell cycle stage: mitosis), 50.6 °C. Besides, the “solubility change mitosis (log2)” value with HeLa Kyoto [2] is -0.0155. Moreover, the thermal stability score stood at 1.19 with HeLa Kyoto [3] (setting [5]) and 0.0635 in the data set with HeLa Kyoto [3] (cell cycle stage: mitosis). The “solubility in G1/S (log2)” value in the data set on HeLa Kyoto [4] is 0.233.
